Source: the DeepSol protein solubility set

Assay: soluble on expression in E. coli; label from the status in PepcDB or PDB records

| Sequence | soluble on expression in E. coli |
| --- | --- |
| MSLDAPRFHIEEIRFSERDVALRLPFRFGAATVTACPQVYVRARIRFENGGTAEGCAAEMMVPKWFDKNPALSNEQNFEQLRCALRAARAAYVAEDGAQTAWTHFASNYAALQARAKAKGLQALVASYGPALIDRAVMDALCLRSGTSFATAMRANLCGIDIAGSGLADDLAGFDMPAFLASQSPRASIAARHTVGLADAIDDSDALPDAPADGLPTTLAEAVKRYGLTHFKPKLCGNTAQDISRLERIARVIDGHAQLVTLDGNEQYADADDFAVFLDRMLSTPVLWKLAQKTVFVEQPIRRDAALQRSVSAPGKRIPLLIDESDATLDAFVQARALGYTGVSSKSCKGFYKSVVNAARCAHWNAAEDKPRYFLSGEDLTMQAGIGVQQDLALVGWLGLSHVERNGHHYVNGLAAVPEAEQQALLKLHPGLYEPGDGAVRLAIRGGQLPLAPLAAAPGFATGIPGAGISWDAMRSVYEGHHHHHH | not soluble |
| MSLSDNAQHLYVNGNVGSSTEEITSVEYSKLLQLKLIDESLSFQWCNNYTVLSIYSMKETFARKTIYIHFPKPLLNKWFTAVVYESSETTSNLCFDVILKDGIFINLSLPIDFILSRTRQNEYPENWLKVLNPYDFSVRPPQCLFHVDNTFSVVFLKDGGLLGLKRIPLEILNDFELQPVLFNDSSYFQSFTRMFSKYDNHNSAVVSAELLNDKYLVTLTNDATIKIWDLTTYQLNAHFDLKEKNQQVNYGAAGKYMIICGSLLFVYLPAGNGSFQVIQLENTHSSRISFKPLNVNIPLNLSSYSIWSLIDIQLVKSSIVKQSGLNLVLLWKSNTVTKLQLLSFEDSLYSSYKWIDGNSTYLSDLLDDSDLITNGNMEKALLNLKSHYSQSTYDDAQKILNKNNVMVQINDPHNQDYLNNLEALLKELHKQYQEPSTLTILDDEIIVVNSLHMYHHSTYKLDSQLETIFFNIFEREGHHHHHH | soluble |
| MGSDKIHHHHHHMAAEIIAVTQQKGGVGKSTIAMHLGAAFHEKGRRVLVIDADGQNTLVHWSSSSADSESGIPFPVVNLAEAGSQIHREIKKFINDYDIIIVDCPPSITEKVSGVVLLAATIAVIPTSSSPADYWSSVGLVKLIQQAQVMNEDLRAVFLLNKTEEKRMLTRELKRALEELGFPLLKTQIPTREAYKQAMALGQTVLQMNDRGAKLAAAEIRACADEIVAMLP | not soluble |
| MAHHHHHHMLDDLKTAYTPAVASKICYVASQLRIDATKGQPYTAVLEATMTAEGEQAMEVASLARIVHSCLVLRSGHLHEVLFTFIPFLREKAGTMDAVTTAVLINAYGRSGVHHPGLYKALCDNGATVLKDPRVPLAHIANVAYAVSRVKFLHPALMLTLRDHALRKVAEASPIISLTVLDAFTELRQIDDDLFNAYEQRLLGQLNELQAPLMASLVSCVVRAGRGKAEVMESLGARTVAIADTFDAASIAKVTNAYYEADVASEDVLGALAERACKVAADFRADEIATVLNALSAFDLFDAELFPLLASRLVALHRQGGYVDVADAAVILSSFAAVQERNDELIYVCTQLFAAYPGVAMDPAVRVNALWACASLNVHNEAQTKMLEEVRATPSLVMWESKTDTLPKAKATLEERTRFLAKVYGITISSSGAR | soluble |
| SNAMAAKKPLFEVIASKIKDSINRDEYKTGMLMPNETALQEIYSSSRTTIRRAVDLLVEEGLVVRKNGVGLYVQPKLTAQNILEMTGVMKNDTNENLKKDIKDFYIRKAGKFYAEIFGMKENELVYSIKFVQKSEHGATLDRLILPLGLYPDLQAKDFQIINIIELVNSGKYKLFELEQELQLILAGNEQIKNMHLNENDPVFKLSSVFYAENDMPIAIQYHYEDAESTKYVVDFN | soluble |
| MAHHHHHHMADQNPDLKVEEALKGADIKLLLIDFDGTLFVDKDIKVPSENIDAIKEAIEKGYMVSICTGRSKVGILSAFGEENLKKMNFYGMPGVYINGTIVYDQIGYTLLDETIETDVYAELISYLVEKNLVNQTIFHRGESNYVTEDNKYADFLQKMYSENRSIIIRHNEMLKYRTMNKLMIVLDPSESKTVIGNLKQKFKNKLTIFTTYNGHAEVTKLGHDKYTGINYLLKHYNISNDQVLVVGDAENDIAMLSNFKYSFAVANATDSAKSHAKCVLPVSHREGAVAYLLKKVFDLKK | soluble |
| MGSDKIHHHHHHMKNAMLVLCVFLGLSACADRDLMPIVPEAVEIGTPYTVFSTTTRAQEADGTYGFRRSEQLRMMEMTVTIPPNHSPGELSYRYKNPDPHKNFAIAEELPVASVSDLRARFLREQRENNWPLREVTIFVHGYNSTHPETAYRSAQMAHDVELPGSLVMYSWPSRGRAFGYAYDIDSMLFARDGLEETVRRVKQAGAERIILVAHSMGTALAMEMLRQADLRNPGWAARTLNGGVILISPDLDVDVFESQMMDLKQVPQPFGVMVSEKDHILNISGRLRGTSEGERLGNIKSAERLMKWPIEVIDLTAFNADAASGHFVAATSPSLLAVIRSASNVSRLFGPVDPTLFQQILPQSQTIVTDHGKLMLARQQRQEER | not soluble |
| MSLADERDQLKSIQADIAAKERAVRQKQQQRASLLAQLKKQEEAISEATRKLRETQNTLNQLNKQIDEMNASIAKLEQQKAAQERSLAAQLDAAFRQGEHTGIQLILSGEESQRGQRLQAYFGYLNQARQETIAQLKQTREEVAMQRAELEEKQSEQQTLLYEQRAQQAKLTQALSERKKTLAGLESSIQQGQQQLSELRANESRLRNSIARAEAAAKARAEREAREAQAVRDRQKEATRKGTTYKPTESEKSLMSRTGGLGAPRGQAFWPVRGPTLHRYGEQLQGELRWKGMVIGASEGTEVKAIADGRVILADWLQGYGLVVVVEHGKGDMSLYGYNQSALVSVGSQVRAGQPIALVGSSGGQGRPSLYFEIRRQGQAVNPQPWLGREGHHHHHH | soluble |
| MKRKFLIASHGNLAKGFQSSLDILADKGKELAVINAYVTPEDYTPIIQTFLQSLGAEEQAIILTDLYGGSVNQKIVQEVMTTKPDNVFIISNANLAIALSLIFLKEGEKLTKEDIQAAIAEAQIQFVELNPSNEEENFF | not soluble |
| MRTLKIEPLTKEAFAPFGDVIETAGSDYFMINNGSTRRYHKLATVETAQPEDNAIISIFSAEKLEMPLRIRMLERHPLGSQAFIPLLGNPFLVVVAPLGDVPVPGLVRAFLTNGRQGVNYHRGVWHHPVLTIEKRDDFLVVDRSGSGNNCDEHFFTEDEQLLLDPQSNQLEHHHHHH | not soluble |
| MCSLNELITGIKELPEPDLTASRLMDAAADYVPLKLRGHIDAKDINSSPKTLENGGTEFFQALIDITHPRLRLYGSGKELAENVRIHRNFPTSHRSPIIYKSLDNNQYIYKTDVFIIIQNICGYRKDSTNNIIELNRFLEVMYLKAREETSRKYLEFVRFDADSFRKIEKKFEKFNQGACFVDRSLEQRNSNGDHLPIVQELDSMKSIEFIQHPIQRAKHKAVPIEDLKPGSYCILAVDALFELFNEIIWGSRVFEKHKVPKIIEYVLKIPTLLFKSELRFPHFIKTAHLHRLLASFEVSLSSFHFPANPVKEVRNAKADHGFTLQNLKNELTYLGLTETFPDITDYAEIAYNEVMRVKKEMLLRTCDLFDAIEHCQLLCIFNRSPFLKQFLHNQKACHRLVGLHCDLCIKEKVEKSENQEAWDLDESSSTKSPIDCKKCSQTLQTIEDVKKELKTSQNKENKMRKKVSELEKKLDVENVQNEQEVKEMEDDLRGKQEELNILRNDSLKVHDVLMEIADLKQKHSKLEKHVEGLKEENLKQERNYNLTQSNLEANLSSMREGLTILQQYTEELEQERQKYQEMLTARSEETSVQAEPAGGEEEMLDVTKQIEEAKEEKIRLKAEHDANERIIQQLLDKLANFS | not soluble |
| MISKRPDIYTQHDKAFSAVSAYVVLNSANERVATVALKFPCDGAGRLYAYVHWVGLEMVRGWAGGYGYDKRSAACASAARRIAIGNLTGDEWTNRRHEATAFVEALEKDSGEDWTRQLEAAGFKVFQAV | not soluble |
| MAHHHHHHMFMVDTDGSAISYHIPVSPFVPLQHDKIDVTTVNRLANFGMRFAMEHGWCYNRHSGDAHSNYASEAVEEGYVESGEDVTVFFAGVDVELVGEFPKFDGKITPASVFFLGQFWISHVGKSSFGVYGKIFRYEAADEKNKFPIGVFKLTGVNVSKKSRRPVPIPKERAEMLLETMRRHQLNTSLPLVVRIDVADFLSRSGLFTDTTYCKLVDKMATYASVTPLTVTYRREFHIRQSDIDFNRHVNQMALIQFVINTFRSALLDQTTVFPRLLDVGVDAIVGDLLLRRLHIDYIRETPMGHQSVAVALFFAEDSSRDAVIASTPESRGNQLAELCFLAQGIPGDGSPSYIAAVGKLYFFC | not soluble |
| MENIVNRTYTRIGQLLKQDISQGIYSIGDKLPTEREISEKFGVSRTIVREAMVMLEVEKLVEVKKGSGVYVVRTPESIHMEHSDLPDVGPFELLQARQLLESSIAEFAALQATKKDILNLKQILNREKELLTQNQDDYSADKDFHLALAEITQNDVLVKLQEQLWQYRFNSAMWAQLHSRILQNDYHHLWIEDHQTILSAIQKKNANEARKAMWQHLENVKVKLFELSDVEDPHFDGYLFNTNPVVVGI | not soluble |
| MSSPERDEGTPVPDSRGHCDADTVSGTPDRRPLLGEEKAVTGEGRAGIVGSPAPRDVEGLVPQIRVAAARQGESPPSVRGPAAAVFVTPKYVEKAQETRGAESQARDVKTEPGTVAAAAEKSEVATPGSEEVMEVEQKPAGEEMEMLEASGGVREAPEEAGPWHLGIDLRRNPLEAIQLELDTVNAQADRAFQHLEQKFGRMRRHYLERRNYIIQNIPGFWMTAFRNHPQLSAMIRGRDAEMLRYVTSLEVKELRHPKTGCKFKFFFRRNPYFRNKLIVKEYEVRSSGRVVSLSTPIIWRRGHEPQSFIRRNQDLICSFFTWFSDHSLPESDRIAEIIKEDLWPNPLQYYLCREGIRRPRRRPIREPVEIPRPFGFQSG | not soluble |
| MSTEKEKMIAGELYRSADETLSRDRLRARQLIHRYNHSLAEEHTLRQQILADLFGQVTEAYIEPTFRCDYGYNIFLGNNFFANFDCVMLDVCPIRIGDNCMLAPGVHIYTATHPIDPVARNSGAELGKPVTIGNNVWIGGRAVINPGVTIGDNVVVASGAVVTKDVPDNVVVGGNPARIIKKL | not soluble |
| MSYVIDRRLNGKNKSTVNRQRFLRRYREHIKKAVEEAVSRRSITDMEHGEQISIPGRDIDEPVLHHGRGGRQTVVHPGNKEFTAGEHIARPSGGGGGRGGGKASNSGEGMDDFVFQITQEEFLDFMFEDLELPNLVKRHITGTDTFKTVRAGISNDGNPSRINIVRTLRSAHARRIALSGGSRAKLRAALKELERIKREEPDNLGDIQELELEIAKLRARIDRVPFLDTFDLKYNLLVKQPNPTSKAVMFCLMDVSGSMTQATKDIAKRFFILLYLFLKRNYEKIEVVFIRHHTSAREVDEEEFFYSRETGGTIVSSALKMMQEIMAERYPTHEWNIYAAQASDGDNWNDDSPVCRDILLKQIMPFVQYYTYVEITPREHQALWFEYERVREAFEDSFAQQQIVSASDIYPVFRELFQRRLVAKLAAALEHHHHHH | not soluble |
| MKIGFIGTGSMGTILIESFLESSALTAEQIVITNRTQEKADALARRYPGLSVVDRPEEVVQQTDCFFVCVKPMQFHRVLMDIRPHCSANKLLVSITSPISIAQLENSVDCKVARAIPSILNRACAGSTLVSFSERCLEEDRSFLCGLLGTISEPLLIEEKITRVSSDIVSCGPAFFSYLTQRFIEAAVRQTAISEEDATALATEMLIGIGKLLDQELYTLPSLQKRVCVPGGITGEGIRVLEEDVGHMFDRLFQKTHQKYYHEQEKISSQLTLKGMAGDPNSLEHHHHHH | not soluble |
